What is called Kd is the free concentration of one partner at which half of the binding sites on the other are occupied at equilibrium, for simple one-to-one binding. Low values mean tighter binding, high ones weaker binding.

The experiment has as its target purified full-length human BACE with six C-terminal His residues, expressed in Sf9 insect cells (human, UniProt P56817 46-501). The experiment can be described thus: radioligand equilibrium binding (Scatchard plot); no inhibitor.

Square brackets hold non-standard residues; d marks the D form. Ends that are not written are not given here. Sta = CC(C)C[C@H](N)[C@@H](O)CC(=O)O

Chain of purified full-length human BACE with six C-terminal His residues, expressed in Sf9 insect cells (P56817 other isoform, or with tags, fused parts or gaps): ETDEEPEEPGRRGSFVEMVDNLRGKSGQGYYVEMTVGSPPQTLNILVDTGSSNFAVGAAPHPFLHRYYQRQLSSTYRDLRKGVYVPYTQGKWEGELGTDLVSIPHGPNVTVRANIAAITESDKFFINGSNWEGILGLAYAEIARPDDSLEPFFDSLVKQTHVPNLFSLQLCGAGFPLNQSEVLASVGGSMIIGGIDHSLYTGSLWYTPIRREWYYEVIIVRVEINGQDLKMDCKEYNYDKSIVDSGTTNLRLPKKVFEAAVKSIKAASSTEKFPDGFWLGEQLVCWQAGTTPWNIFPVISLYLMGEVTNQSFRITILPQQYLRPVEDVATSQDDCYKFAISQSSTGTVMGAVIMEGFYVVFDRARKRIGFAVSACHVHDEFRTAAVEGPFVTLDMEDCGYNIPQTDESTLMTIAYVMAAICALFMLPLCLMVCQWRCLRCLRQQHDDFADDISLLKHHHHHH

B1: tritiated Compound A (Glu-Val-Asn-Statine-Val-Ala-Glu-Tyr-NH2, iodine of Tyr(I2) exchanged for 3H) (peptide)
peptide: EVN[Sta]VAE[Tyr(3H2)]-NH2
For the molecule B1, binding was characterised by a dissociation constant (Kd) of 25 nM.
